Literature values in PMC10343017.

Legend:
TEM8 (Homo sapiens) = TEM8 (Homo sapiens) (UniProt Q9H6X2)
CMG2 (Homo sapiens) = CMG2 (Homo sapiens) (UniProt P58335)

Which Kd (TEM8 (Homo sapiens)) does the source give for “protective antigen (from UniProt P13423)” here?
The Kd was 130 nM.

And the Kd (CMG2 (Homo sapiens))?
The Kd was 0.78 nM.
